Laboratory results as given in paper PMC9472616 (2022).

B1: REGN10933 (antibody, V domains shown)
VH: QVQLVESGGGLVKPGGSLRLSCAASGFTFSDYYMSWIRQAPGKGLEWVSYITYSGSTIYYADSVKGRFTISRDNAKSSLYLQMNSLRAEDTAVYYCARDRGTTMVPFDYWGQGTLVTVSS
VL: DIQMTQSPSSLSASVGDRVTITCQASQDITNYLNWYQQKPGKAPKLLIYAASNLETGVPSRFSGSGSGTDFTFTISGLQPEDIATYYCQQYDNLPLTFGGGTKVEIK
B2: REGN10987 (antibody, V domains shown)
VH: QVQLVESGGGVVQPGRSLRLSCAASGFTFSNYAMYWVRQAPGKGLEWVAVISYDGSNKYYADSVKGRFTISRDNSKNTLYLQMNSLRTEDTAVYYCASGSDYGDYLLVYWGQGTLVTVSS
VL: QSALTQPASVSGSPGQSITISCTGTSSDVGGYNYVSWYQQHPGKAPKLMIYDVSKRPSGVSNRFSGSKSGNTASLTISGLQSEDEADYYCNSLTSISTWVFGGGTKLTVL
B3: BD-368 (antibody, V domains shown)
VH: EVQLLESGGGVVQPGGSLRLSCAASGFAFTTYAMNWVRQAPGRGLEWVSAISDGGGSAYYADSVKGRFTISRDNSKNTLYLQMNSLRAEDTAVYYCAKTRGRGLYDYVWGSKDYWGQGTLVTVSS
VL: not shown
B4: CB6 (antibody, V domains shown)
VH: EVQLVESGGGLVQPGGSLRLSCAASGFTVSSNYMSWVRQAPGKGLEWVSVIYSGGSTFYADSVKGRFTISRDNSMNTLFLQMNSLRAEDTAVYYCARVLPMYGDYLDYWGQGTLVTVSS
VL: not shown

Target: SARS-CoV-2 WT RBD (SARS-CoV-2, UniProt P0DTC2 319-541)
Experiment: SPR

Row | Binder | Kd [nM]
1 | B1 | 1.6
2 | B2 | 2.22
3 | B3 | 3.47
4 | B4 | 30
